B1: Mothers against decapentaplegic homolog 4 (Homo sapiens), Q13485 (parent)
chain: MDNMSITNTPTSNDACLSIVHSLMCHRQGGESETFAKRAIESLVKKLKEKKDELDSLITAITTNGAHPSKCVTIQRTLDGRLQVAGRKGFPHVIYARLWRWPDLHKNELKHVKYCQYAFDLKCDSVCVNPYHYERVVSPGIDLSGLTLQSNAPSSMMVKDEYVHDFEGQPSLSTEGHSIQTIQHPPSNRASTETYSTPALLAPSESNATSTANFPNIPVASTSQPASILGGSHSEGLLQIASGPQPGQQQNGFTGQPATYHHNSTTTWTGSRTAPYTPNLPHHQNGHLQHHPPMPPHPGHYWPVHNELAFQPPISNHPAPEYWCSIAYFEMDVQVGETFKVPSSCPIVTVDGYVDPSGGDRFCLGQLSNVHRTEAIERARLHIGKGVQLECKGEGDVWVRCLSDHAVFVQSYYLDREAGRAPGDAVHKIYPSAYIKVFDLRQCHRQMQQQAATAQAAAAAQAAAVAGNIPGPGSVGGIAPAISLSAAAGIGVDDLRRLCILRMSFVKGWGPDYPRQSIKETPCWIEIHLHRALQLLDEVLHTMPIADPQPLD
partner: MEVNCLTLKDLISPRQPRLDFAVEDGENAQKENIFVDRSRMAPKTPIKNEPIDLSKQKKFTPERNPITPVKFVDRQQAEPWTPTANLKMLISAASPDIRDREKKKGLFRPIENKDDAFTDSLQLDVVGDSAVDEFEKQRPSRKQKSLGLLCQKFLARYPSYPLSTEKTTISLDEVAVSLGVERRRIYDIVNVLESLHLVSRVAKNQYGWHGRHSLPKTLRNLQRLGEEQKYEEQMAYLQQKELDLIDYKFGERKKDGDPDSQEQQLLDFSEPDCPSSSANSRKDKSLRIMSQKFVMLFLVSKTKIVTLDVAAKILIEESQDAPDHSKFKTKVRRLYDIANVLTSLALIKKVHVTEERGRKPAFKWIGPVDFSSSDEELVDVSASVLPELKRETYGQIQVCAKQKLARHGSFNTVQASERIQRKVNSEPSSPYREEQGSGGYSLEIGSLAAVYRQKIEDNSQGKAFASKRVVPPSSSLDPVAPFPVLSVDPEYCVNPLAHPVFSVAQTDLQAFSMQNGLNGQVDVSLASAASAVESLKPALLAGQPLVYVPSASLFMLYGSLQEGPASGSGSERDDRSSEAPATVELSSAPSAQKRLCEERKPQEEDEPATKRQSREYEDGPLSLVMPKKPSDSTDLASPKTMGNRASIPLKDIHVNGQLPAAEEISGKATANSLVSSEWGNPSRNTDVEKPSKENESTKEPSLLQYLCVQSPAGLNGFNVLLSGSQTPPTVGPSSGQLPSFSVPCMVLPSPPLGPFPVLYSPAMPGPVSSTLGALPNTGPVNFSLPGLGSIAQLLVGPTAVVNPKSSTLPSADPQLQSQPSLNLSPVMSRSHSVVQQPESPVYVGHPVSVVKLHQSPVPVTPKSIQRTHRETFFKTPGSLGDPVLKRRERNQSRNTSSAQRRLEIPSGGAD
B2: Mothers against decapentaplegic homolog 4 (Homo sapiens), Q13485 (parent)
chain: B1 chain
partner: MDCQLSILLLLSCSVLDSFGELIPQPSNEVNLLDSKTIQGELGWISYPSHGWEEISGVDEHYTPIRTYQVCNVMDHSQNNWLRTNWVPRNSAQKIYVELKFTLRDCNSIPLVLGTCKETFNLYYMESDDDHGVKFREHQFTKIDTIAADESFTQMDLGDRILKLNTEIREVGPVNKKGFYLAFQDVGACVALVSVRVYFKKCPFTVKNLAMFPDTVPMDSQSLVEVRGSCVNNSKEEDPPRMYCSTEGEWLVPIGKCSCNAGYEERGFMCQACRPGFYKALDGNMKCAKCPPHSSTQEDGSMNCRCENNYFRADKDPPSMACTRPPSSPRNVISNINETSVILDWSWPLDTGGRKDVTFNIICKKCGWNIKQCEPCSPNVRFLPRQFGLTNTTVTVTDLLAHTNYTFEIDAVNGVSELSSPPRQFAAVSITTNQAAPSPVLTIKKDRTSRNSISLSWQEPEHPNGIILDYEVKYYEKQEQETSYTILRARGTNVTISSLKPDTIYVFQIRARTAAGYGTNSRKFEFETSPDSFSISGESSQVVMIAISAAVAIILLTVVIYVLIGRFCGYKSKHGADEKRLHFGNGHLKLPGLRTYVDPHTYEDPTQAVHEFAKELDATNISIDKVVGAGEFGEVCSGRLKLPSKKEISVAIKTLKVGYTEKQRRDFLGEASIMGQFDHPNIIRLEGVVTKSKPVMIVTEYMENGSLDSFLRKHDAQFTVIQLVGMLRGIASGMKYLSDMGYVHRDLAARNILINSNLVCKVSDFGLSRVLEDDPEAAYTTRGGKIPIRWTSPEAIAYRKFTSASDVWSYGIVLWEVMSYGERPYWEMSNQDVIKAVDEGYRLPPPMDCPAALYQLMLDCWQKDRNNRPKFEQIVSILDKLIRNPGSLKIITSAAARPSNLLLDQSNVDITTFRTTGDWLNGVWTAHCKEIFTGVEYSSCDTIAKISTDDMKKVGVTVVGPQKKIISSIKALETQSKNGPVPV
B3: Mothers against decapentaplegic homolog 4 (Homo sapiens), Q13485 (parent)
chain: B1 chain
partner: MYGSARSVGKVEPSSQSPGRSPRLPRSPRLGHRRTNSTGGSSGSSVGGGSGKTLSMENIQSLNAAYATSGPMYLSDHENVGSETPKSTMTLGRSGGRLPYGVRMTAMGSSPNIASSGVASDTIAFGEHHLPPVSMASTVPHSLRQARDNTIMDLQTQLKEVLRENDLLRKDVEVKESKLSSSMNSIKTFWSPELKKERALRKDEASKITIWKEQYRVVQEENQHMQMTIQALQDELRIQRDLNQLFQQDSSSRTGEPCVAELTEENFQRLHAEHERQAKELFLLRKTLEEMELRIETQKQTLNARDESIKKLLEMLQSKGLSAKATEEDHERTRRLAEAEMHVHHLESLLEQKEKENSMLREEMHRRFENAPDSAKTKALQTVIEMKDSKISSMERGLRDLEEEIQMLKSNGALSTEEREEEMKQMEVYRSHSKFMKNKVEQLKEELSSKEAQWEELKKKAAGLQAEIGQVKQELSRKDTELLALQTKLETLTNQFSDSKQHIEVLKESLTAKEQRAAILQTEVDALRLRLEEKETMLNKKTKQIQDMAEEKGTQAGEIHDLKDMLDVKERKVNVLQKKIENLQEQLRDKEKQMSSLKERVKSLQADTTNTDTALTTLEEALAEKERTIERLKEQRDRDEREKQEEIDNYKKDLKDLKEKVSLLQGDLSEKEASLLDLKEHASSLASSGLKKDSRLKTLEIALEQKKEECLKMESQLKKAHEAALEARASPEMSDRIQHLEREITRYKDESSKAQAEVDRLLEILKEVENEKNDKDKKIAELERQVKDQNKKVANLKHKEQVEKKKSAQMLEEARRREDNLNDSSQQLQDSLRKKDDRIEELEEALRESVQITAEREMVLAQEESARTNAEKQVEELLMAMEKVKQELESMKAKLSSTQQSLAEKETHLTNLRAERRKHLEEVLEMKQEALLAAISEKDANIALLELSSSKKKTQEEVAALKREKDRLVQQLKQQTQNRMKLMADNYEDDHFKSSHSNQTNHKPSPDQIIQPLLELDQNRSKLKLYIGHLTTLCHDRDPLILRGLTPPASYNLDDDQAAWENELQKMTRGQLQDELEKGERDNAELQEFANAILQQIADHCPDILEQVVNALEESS
B4: Mothers against decapentaplegic homolog 4 (Homo sapiens), Q13485 (parent)
chain: B1 chain
partner: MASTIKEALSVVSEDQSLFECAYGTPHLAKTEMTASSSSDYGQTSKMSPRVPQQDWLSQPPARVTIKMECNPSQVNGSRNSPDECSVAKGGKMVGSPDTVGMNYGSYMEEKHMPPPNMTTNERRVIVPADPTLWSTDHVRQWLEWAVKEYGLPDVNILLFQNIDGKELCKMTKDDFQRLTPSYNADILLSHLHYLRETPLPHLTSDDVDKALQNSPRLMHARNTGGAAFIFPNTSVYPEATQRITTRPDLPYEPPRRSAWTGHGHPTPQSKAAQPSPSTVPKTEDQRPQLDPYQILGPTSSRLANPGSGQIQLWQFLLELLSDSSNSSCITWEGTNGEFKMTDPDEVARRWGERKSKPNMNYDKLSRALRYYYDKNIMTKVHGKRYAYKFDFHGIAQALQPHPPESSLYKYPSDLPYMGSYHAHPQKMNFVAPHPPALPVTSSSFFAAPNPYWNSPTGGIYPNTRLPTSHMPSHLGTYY

Variants of: B1
Conditions: with e2f7_human E2F7, Q96AV8

| Variant | effect of a mutation on the interaction |
| --- | --- |
| D351H | with no effect |

Variants of: B1
Conditions: with e2f7_human E2F7, Q96AV8
Remark: another data set of the same source

| Variant | effect of a mutation on the interaction |
| --- | --- |
| G386D | with no effect |

Variants of: B2
Conditions: with epha3_human EPHA3, P29320

| Variant | effect of a mutation on the interaction |
| --- | --- |
| D351H | with no effect |

Variants of: B2
Conditions: with epha3_human EPHA3, P29320
Remark: another data set of the same source

| Variant | effect of a mutation on the interaction |
| --- | --- |
| G386D | with no effect |

Variants of: B2
Conditions: with epha3_human EPHA3, P29320
Remark: another data set of the same source

| Variant | effect of a mutation on the interaction |
| --- | --- |
| G386D | increasing interaction strength |

Variants of: B2
Conditions: with epha3_human EPHA3, P29320
Remark: another data set of the same source

| Variant | effect of a mutation on the interaction |
| --- | --- |
| R361C | with no effect |

Variants of: B2
Conditions: with epha3_human EPHA3, P29320
Remark: another data set of the same source

| Variant | effect of a mutation on the interaction |
| --- | --- |
| R361H | with no effect |

Variants of: B3
Conditions: with rb6i2_human ERC1, Q8IUD2

| Variant | effect of a mutation on the interaction |
| --- | --- |
| D351H | with no effect |

Variants of: B3
Conditions: with rb6i2_human ERC1, Q8IUD2
Remark: another data set of the same source

| Variant | effect of a mutation on the interaction |
| --- | --- |
| G386D | with no effect |

Variants of: B3
Conditions: with rb6i2_human ERC1, Q8IUD2
Remark: another data set of the same source

| Variant | effect of a mutation on the interaction |
| --- | --- |
| R361C | with no effect |

Variants of: B3
Conditions: with rb6i2_human ERC1, Q8IUD2
Remark: another data set of the same source

| Variant | effect of a mutation on the interaction |
| --- | --- |
| R361H | with no effect |

Variants of: B4
Conditions: with erg_human ERG

| Variant | effect of a mutation on the interaction |
| --- | --- |
| D351H | with no effect |

Reference: IntAct's records for PubMed 35512704
